Substrate: NCCCCNCCCN
Test: polyamine-dependent ATPase activity (Pi release, molybdate), Hill fit
Assay type: biochemical, Homo sapiens
Conditions: microsomes of overexpressing H441 cells, 2 mM ATP, 5 mM MgCl2, 20 mM Tris-HCl pH 8.0, 10% glycerol, 1 mM DTT, 37 °C, 30 min, Hill coefficient n = 1, constant printed as Kd but from ATPase stimulation
Description: polyamine-dependent ATPase activity (Pi release, molybdate), Hill fit on ATP13A2 | Polyamine dependence of ATP13A2 was fitted to the Hill equation

B1: ATP13A2 (Homo sapiens) (protein)
chain: MSADSSPLVGSTPTGYGTLTIGTSIDPLSSSVSSVRLSGYCGSPWRVIGYHVVVWMMAGIPLLLFRWKPLWGVRLRLRPCNLAHAETLVIEIRDKEDSSWQLFTVQVQTEAIGEGSLEPSPQSQAEDGRSQAAVGAVPEGAWKDTAQLHKSEEAVSVGQKRVLRYYLFQGQRYIWIETQQAFYQVSLLDHGRSCDDVHRSRHGLSLQDQMVRKAIYGPNVISIPVKSYPQLLVDEALNPYYGFQAFSIALWLADHYYWYALCIFLISSISICLSLYKTRKQSQTLRDMVKLSMRVCVCRPGGEEEWVDSSELVPGDCLVLPQEGGLMPCDAALVAGECMVNESSLTGESIPVLKTALPEGLGPYCAETHRRHTLFCGTLILQARAYVGPHVLAVVTRTGFCTAKGGLVSSILHPRPINFKFYKHSMKFVAALSVLALLGTIYSIFILYRNRVPLNEIVIRALDLVTVVVPPALPAAMTVCTLYAQSRLRRQGIFCIHPLRINLGGKLQLVCFDKTGTLTEDGLDVMGVVPLKGQAFLPLVPEPRRLPVGPLLRALATCHALSRLQDTPVGDPMDLKMVESTGWVLEEEPAADSAFGTQVLAVMRPPLWEPQLQAMEEPPVPVSVLHRFPFSSALQRMSVVVAWPGATQPEAYVKGSPELVAGLCNPETVPTDFAQMLQSYTAAGYRVVALASKPLPTVPSLEAAQQLTRDTVEGDLSLLGLLVMRNLLKPQTTPVIQALRRTRIRAVMVTGDNLQTAVTVARGCGMVAPQEHLIIVHATHPERGQPASLEFLPMESPTAVNGVKDPDQAASYTVEPDPRSRHLALSGPTFGIIVKHFPKLLPKVLVQGTVFARMAPEQKTELVCELQKLQYCVGMCGDGANDCGALKAADVGISLSQAEASVVSPFTSSMASIECVPMVIREGRCSLDTSFSVFKYMALYSLTQFISVLILYTINTNLGDLQFLAIDLVITTTVAVLMSRTGPALVLGRVRPPGALLSVPVLSSLLLQMVLVTGVQLGGYFLTLAQPWFVPLNRTVAAPDNLPNYENTVVFSLSSFQYLILAAAVSKGAPFRRPLYTNVPFLVALALLSSVLVGLVLVPGLLQGPLALRNITDTGFKLLLLGLVTLNFVGAFMLESVLDQCLPACLRRLRPKRASKKRFKQLERELAEQPWPPLPAGPLR
notes: full-length with C-terminal TEV site, Halo tag and 6xHis (tags kept; ATP13A2-Halo, theoretical mass 165 K), adenovirus-mediated overexpression in NCI-H441 cells, microsome fraction
K0.5: 1.00 mM

— article PMC13042586, “ATP13A2 is involved in intracellular polyamine transport in lung epithelial cells” (FEBS Open Bio, 2025)
